Experimental data published in publication PMC5367461 (Biochemical and biophysical research communications, 2017).
One block for each binder: values may come before it.

Legend:
[1] = biological target: T1, PDZ-RhoGEF PDZ domain (residues 41-123), human (human, UniProt O15085 41-123); test: crystal structure
T1 sequence (looked up): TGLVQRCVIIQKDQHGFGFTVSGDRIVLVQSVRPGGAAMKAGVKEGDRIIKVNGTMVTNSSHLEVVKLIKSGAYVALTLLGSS

[2] = biological target: the molecule itself; test: SDS-PAGE with/without BME

binding result [1]: binds
Binder: TSTTL [CXCR2 C-terminal PDZ binding motif TSTTL (residues 356-360 of human CXCR2)]

B1: rPDZ-CXCR2 fusion protein: human PDZ-RhoGEF PDZ (residues 41-123) with the C-terminal extension TSTTL of human CXCR2 (other)
chain: TGLVQRCVIIQKDQHGFGFTVSGDRIVLVQSVRPGGAAMKAGVKEGDRIIKVNGTMVTNSSHLEVVKLIKSGAYVALTLLGSSTSTTL
stoichiometry N [2]: 2
